Key:
[1] = target: T1, HLA-G5 recombinant protein (without β2M association) (human, UniProt P17693-5 25-319); test: flow cytometry titration on β2M-free HLA-G5 coated Bioplex beads
T1 construct: domain: α1α2α3 domains of HLA-G5; No β2M; Coupled to Bioplex beads; also called hβ2M-free HLA-G5; recombinant HLA-G5 protein
Method: (§1) The binding detection was carried out by flow cytometry using a PE-conjugated goat anti-mouse antibody. […] Measurements were performed in triplicate (n=3); error bars indicate SD.
(§2) Flow cytometry analyses were performed using LSR FORTESSA (Beckton Dickinson, Le Pont-de-Claix, France); data were analyzed with FlowJo X software (Tree star, Ashland, USA).

[2] = target: HLA-G6 recombinant protein (without β2M association) (human, UniProt P17693 25-227); test: flow cytometry titration on HLA-G6 coated Bioplex beads
Method: as §1, §2

Control peptide = target: T2, Control peptide; test: flow cytometry on Bioplex beads coated with the mutated peptide, PE-conjugated goat anti-mouse antibody
T2 peptide: CTHHPVADAEATLRC
Method: as §1
As specificity (negative) controls, uncoupled beads or beads coated with a mutated peptide [sequence]

EC50 [1]: 0.028 mg/L | EC50 [2]: 0.12 mg/L | binding result (Control peptide): no binding (tested: 250 ng/ml)
B1: anti-HLA-G monoclonal antibody 15E7 (antibody, V domains shown)
VH: QVQLQQPGAELVRPGSSVKLSCKASGYTFTDYWMDWVKQRPGQGLEWIGTIYPSDSSTHYNQEFKGKATMTVDKSSSTAYMHLSSLTSEDSAVYYCAREGLAGVFYFDYWGQGTTLTVSS
VL: DVLMTQIPFSLPVSLGDQASISCRSSQSIVHRSGNTYLEWYLQKPGQSPKLLIYKVSNRFSGVPDRFSGSGSGTDFTLKISRVEAEDLGVYYCFQGSHLPPTFGGTTLEIK
notes: also called 15E7 mAb; 15E7 Mab

From patent US20220056140A1 (INVECTYS, published 2022)
